Reference: publication PMC9625839

Biological target: high-affinity mouse IL2 receptor on CTLL-2 cells (mouse (endogenous in CTLL-2))

CTLL-2 cell proliferation (WST-1 absorbance), EC50: 0.6 ng/mL
Substance: aldesleukin (FDA-approved recombinant human IL2) (from UniProt P60568 21-133) (ligand)
